Holding throughout (test): flow cytometry, alanine-scan library in HEK-293T
One test has as its target T1, hsGLUT4 R169A (human, UniProt P14672 1-509).
T1 sequence: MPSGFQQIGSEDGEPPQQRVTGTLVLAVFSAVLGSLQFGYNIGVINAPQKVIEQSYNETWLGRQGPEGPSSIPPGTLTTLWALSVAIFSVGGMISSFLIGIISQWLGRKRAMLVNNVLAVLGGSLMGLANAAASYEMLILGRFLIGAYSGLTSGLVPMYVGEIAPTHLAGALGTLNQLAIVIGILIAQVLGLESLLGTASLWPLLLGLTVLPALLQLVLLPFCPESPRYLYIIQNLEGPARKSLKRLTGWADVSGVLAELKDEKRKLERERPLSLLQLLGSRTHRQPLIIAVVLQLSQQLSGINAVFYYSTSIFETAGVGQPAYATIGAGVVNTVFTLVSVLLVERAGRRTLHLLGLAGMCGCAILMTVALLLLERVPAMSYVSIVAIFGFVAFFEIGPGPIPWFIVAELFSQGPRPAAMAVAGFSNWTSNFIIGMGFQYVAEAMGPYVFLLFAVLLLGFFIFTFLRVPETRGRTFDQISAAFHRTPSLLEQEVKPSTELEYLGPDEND
The procedure, abridged: (§1)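 HEK-293T cells expressing individual GLUT4 alanine mutants were stained 48 h post-transfection with anti-GLUT4 scFv MAbs (2 μg/ml), then biotinylated secondary and streptavidin-PerCP, and read by high-throughput flow cytometry. Where used, cytochalasin B (10 uM final) was given for 30 min before and during primary antibody staining.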

Another test has as its target T2, hsGLUT4 L247A (human, UniProt P14672 1-509).
T2 sequence: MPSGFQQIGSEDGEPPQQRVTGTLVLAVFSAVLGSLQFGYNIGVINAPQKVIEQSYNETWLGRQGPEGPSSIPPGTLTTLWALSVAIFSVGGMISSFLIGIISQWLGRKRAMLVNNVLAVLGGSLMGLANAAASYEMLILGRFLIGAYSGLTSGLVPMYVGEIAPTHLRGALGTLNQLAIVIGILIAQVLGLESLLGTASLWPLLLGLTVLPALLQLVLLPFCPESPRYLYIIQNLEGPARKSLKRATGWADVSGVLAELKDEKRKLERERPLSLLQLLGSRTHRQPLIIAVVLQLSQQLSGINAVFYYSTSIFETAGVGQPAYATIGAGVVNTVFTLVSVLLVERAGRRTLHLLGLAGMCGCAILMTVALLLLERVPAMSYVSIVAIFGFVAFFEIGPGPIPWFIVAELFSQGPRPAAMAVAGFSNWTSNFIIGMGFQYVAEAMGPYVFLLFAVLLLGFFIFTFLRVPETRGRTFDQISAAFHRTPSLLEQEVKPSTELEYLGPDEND
The procedure, abridged:
as §1

For the next test, the target named is T3, hsGLUT4 V306A (human, UniProt P14672 1-509).
T3 sequence: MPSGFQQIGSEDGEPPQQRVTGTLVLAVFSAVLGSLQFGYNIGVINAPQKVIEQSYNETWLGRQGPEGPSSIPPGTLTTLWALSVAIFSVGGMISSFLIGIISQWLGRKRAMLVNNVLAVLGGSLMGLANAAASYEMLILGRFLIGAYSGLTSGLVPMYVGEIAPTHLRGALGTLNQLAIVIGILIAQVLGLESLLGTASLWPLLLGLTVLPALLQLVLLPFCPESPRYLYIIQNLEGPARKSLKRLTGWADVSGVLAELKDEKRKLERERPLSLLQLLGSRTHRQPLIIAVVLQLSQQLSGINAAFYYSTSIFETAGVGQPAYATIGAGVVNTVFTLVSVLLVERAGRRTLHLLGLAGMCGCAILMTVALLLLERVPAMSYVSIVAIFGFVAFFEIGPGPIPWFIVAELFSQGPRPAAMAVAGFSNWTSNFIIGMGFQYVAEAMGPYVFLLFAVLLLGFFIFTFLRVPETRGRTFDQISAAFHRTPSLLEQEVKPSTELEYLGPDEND
A digest of the protocol:
as §1

The next test has as its target T4, hsGLUT4 E315A (human, UniProt P14672 1-509).
T4 sequence: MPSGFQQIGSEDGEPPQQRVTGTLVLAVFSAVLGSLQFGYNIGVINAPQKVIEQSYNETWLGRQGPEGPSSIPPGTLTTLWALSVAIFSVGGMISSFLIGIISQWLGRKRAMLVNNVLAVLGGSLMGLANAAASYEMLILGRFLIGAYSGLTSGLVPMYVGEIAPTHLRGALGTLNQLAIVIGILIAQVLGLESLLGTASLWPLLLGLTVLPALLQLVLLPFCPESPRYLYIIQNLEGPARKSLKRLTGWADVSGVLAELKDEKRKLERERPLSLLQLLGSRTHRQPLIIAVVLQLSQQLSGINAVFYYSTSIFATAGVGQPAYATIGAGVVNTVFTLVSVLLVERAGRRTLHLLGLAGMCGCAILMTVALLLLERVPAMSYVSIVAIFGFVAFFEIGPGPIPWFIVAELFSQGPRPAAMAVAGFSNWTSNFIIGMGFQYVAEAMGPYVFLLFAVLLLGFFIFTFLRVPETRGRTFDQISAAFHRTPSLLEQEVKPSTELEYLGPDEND
A digest of the protocol: as §1

Turning to 1F8 (antibody), the % of binding to wild type GLUT4 came out at 84% in the test with hsGLUT4 R169A, 95% with hsGLUT4 L247A, 74% with hsGLUT4 V306A and 93% with hsGLUT4 E315A.

B1: AB101 (scFv)
scFv: ALTQPSSVSANPGETVKITCSGSSNSYGWYQQKSPGSAPVTVIYYNDKRPSDIPSRFSGSKSDSTHTLTITGVRAEDEAVYFCGSYDSTYVGIFGAGTTLTVLGQSSRSSGGGGSSGGGGSAVTLDESGGGLQTPGGTLSLVCKASGFTFSSNAMGWVRQAPGKGLEWVAGISSDGRYTKYGSAVKGRATISRDNGQSTVRLQLNNLRAEDTGTYFCAKAFGNNYRRIYAGQIDAWGHGTEVIVSS
notes: Chicken-derived clone used as a control; the four lead clones were tested as scFv-human IgG1 Fc; also called MAb AB101
With B1, the “% of binding to wild type GLUT4” value with hsGLUT4 R169A came out at 119%; in the test with hsGLUT4 L247A it was 111%; with hsGLUT4 V306A, 91%; in the test with hsGLUT4 E315A it was 130%.

B2: AB108 (Fc fusion)
scFv: ALTQPSSVSANLGGTVKITCSGSSGSYGWYQQKAPGSAPVTLIYRNDKRPSDIPSRFSGSESGSTGTLTITGVQAEDEAVYFCGGYDSSAGYAAFGAGTTLTVLGQSSRSSGGGGSSGGGGSAVTLDESGGGLQTPGGALSLVCKASGFTFSSHGMGWVRQAPGKGLEWVGSISTGRYTFYAPAVKGRATISRDNGQSTLRLQLNNLRAEDTGTYYCTKCAGLNGCGGGEIDAWGHGTEVIVSS
notes: Bivalent scFv-Fc; also called MAb AB108; not shown: Fc fragment of human IgG1, cloned in frame with the scFv
Take B2: the “% of binding to wild type GLUT4” value with hsGLUT4 R169A came to 108%; in the test with hsGLUT4 L247A, 110%; with hsGLUT4 V306A, 83%; with hsGLUT4 E315A it was 96%.

B3: AB111 (Fc fusion)
scFv: ALTQPSSVSANPGETVKITCSGSGSWYGWFQQKSPGSAPVTVIYSNDKRPSDIPSRFSGSKSGSTSTLTITGVQVEDEAVYYCGNWDIFGAGTTLTVLGQSSRSSGGGGSSGGGGSAVTLDESGGGLQTPGGALSLVCKASGFTFSSHGMGWVRQAPGKGLEWVASISTGRYTFYAPAVKGRATISRDNGQSTVRLQLNNLRAEDTATYYCTKCAGLNGCGGGEIDAWGHGTEVIVSS
notes: Bivalent scFv-Fc; also called MAb AB111; not shown: Fc fragment of human IgG1, cloned in frame with the scFv
As to B3, the “% of binding to wild type GLUT4” value with hsGLUT4 R169A was found to be 97%; with hsGLUT4 L247A, 99%; with hsGLUT4 V306A it was 171%; with hsGLUT4 E315A it was 164%.

These data come from patent publication US20210238276A1 (INTEGRAL MOLECULAR, published 2021).
